According to the supplement of paper PMC9876800:

System: peptide library, one residue held at a place counted from the S/T acceptor
Test: relative phosphorylation of the sub-library (ratio to the mean residue at this position); higher = residue favoured
Conditions: human
In short: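 Each biotinylated degenerate peptide sub-library fixed one residue at one position around a central Ser/Thr and was incubated with a purified recombinant kinase, a human or orthologue construct, in 384-well plates. The 90 min reactions, under kinase-specific conditions, contained 50 μM peptide and 50 μM ATP spiked with γ-32P-ATP. Phosphorylation was read by phosphorimaging spots on streptavidin membranes and quantifying them by densitometry. Relative sub-library phosphorylation expresses each value as a ratio to the mean residue at that position.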

Chain of CDK3, construct: Full length (Q00526 whole entry, looked up): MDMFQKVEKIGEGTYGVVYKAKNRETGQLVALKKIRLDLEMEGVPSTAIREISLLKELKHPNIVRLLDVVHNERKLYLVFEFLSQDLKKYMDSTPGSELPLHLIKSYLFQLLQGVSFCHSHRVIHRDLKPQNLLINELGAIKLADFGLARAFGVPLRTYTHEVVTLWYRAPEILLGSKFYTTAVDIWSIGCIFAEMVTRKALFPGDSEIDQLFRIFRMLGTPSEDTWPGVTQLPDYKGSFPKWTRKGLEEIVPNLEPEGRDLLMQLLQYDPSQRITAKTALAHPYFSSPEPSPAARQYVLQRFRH

CDK3, construct: Full length (from UniProt Q00526)
relative phosphorylation
Conditions	at +1	at +2	at +3	at +4	at -1	at -2	at -3	at -4	at -5
A fixed	0.28	1.2	0.418	1.14	1.12	1.17	1.14	1.23	1.11
D fixed	0.17	0.658	0.277	0.882	0.844	0.837	0.997	1.07	1.31
E fixed	0.172	0.626	0.25	0.783	0.718	0.938	0.839	1.29	1.06
F fixed	0.14	0.857	0.261	0.778	0.703	0.855	0.746	0.8	0.944
G fixed	0.912	0.851	0.612	1.43	1.72	1.28	1.83	1.49	1.37
H fixed	0.177	1.06	0.699	1.06	0.778	0.981	0.984	0.966	0.993
I fixed	0.156	0.775	0.261	0.697	0.343	0.691	0.618	0.589	0.656
K fixed	0.214	2	9.66	1.99	1.58	0.753	0.978	1.1	1.06
L fixed	0.156	0.891	0.266	0.736	0.741	0.957	0.777	0.709	0.629
M fixed	0.167	0.98	0.284	0.962	0.969	0.889	0.766	0.957	0.695
N fixed	0.193	1.05	0.405	0.988	1.1	0.909	1.06	0.938	0.887
P fixed	13.3	0.682	0.644	1.04	1.87	2.78	2.04	1.54	1.51
Q fixed	0.212	1.29	0.401	0.933	1.17	0.825	0.943	0.836	0.915
R fixed	0.2	1.9	1.69	1.1	1.48	0.835	1	1.01	1.12
V fixed	0.216	0.851	0.302	0.682	0.453	0.688	0.654	0.602	0.832
W fixed	0.155	0.653	0.277	1.05	0.613	0.867	0.807	0.969	1.01
Y fixed	0.142	0.664	0.288	0.741	0.793	0.744	0.814	0.891	0.895
pThr fixed	0.523	0.933	0.86	0.685	0.434	0.731	0.886	1	1.24
pTyr fixed	0.633	0.538	0.927	0.718	0.48	0.698	0.853	0.982	0.947
